The results in this text go back to US20220281980A1 (Bristol-Myers Squibb, published 2022).

Positions count from the first letter of the chain named. Names may count otherwise.

Test [1] addresses T1, human MICB expressed on transduced cells (human, UniProt Q29980 23-382).
T1 chain: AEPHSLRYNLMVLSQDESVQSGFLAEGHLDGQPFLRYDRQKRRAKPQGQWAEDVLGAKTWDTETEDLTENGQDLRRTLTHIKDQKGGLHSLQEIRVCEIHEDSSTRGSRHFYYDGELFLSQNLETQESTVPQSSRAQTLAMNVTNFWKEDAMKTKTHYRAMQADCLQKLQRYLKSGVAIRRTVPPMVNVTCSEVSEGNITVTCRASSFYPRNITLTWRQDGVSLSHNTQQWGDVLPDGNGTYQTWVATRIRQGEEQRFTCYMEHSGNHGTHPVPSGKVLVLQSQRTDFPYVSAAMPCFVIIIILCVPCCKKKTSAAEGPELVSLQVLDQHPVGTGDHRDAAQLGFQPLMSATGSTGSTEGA
Briefly: cell-based or functional assay.

The target in test [2] is T2, human MICA/B endogenously expressed on 786-O cells (MICA allele *008) (human, UniProt Q29983 24-331).
T2 construct: it speaks of MICA/B, so MICB may be present as well; also called 786-0
T2 chain: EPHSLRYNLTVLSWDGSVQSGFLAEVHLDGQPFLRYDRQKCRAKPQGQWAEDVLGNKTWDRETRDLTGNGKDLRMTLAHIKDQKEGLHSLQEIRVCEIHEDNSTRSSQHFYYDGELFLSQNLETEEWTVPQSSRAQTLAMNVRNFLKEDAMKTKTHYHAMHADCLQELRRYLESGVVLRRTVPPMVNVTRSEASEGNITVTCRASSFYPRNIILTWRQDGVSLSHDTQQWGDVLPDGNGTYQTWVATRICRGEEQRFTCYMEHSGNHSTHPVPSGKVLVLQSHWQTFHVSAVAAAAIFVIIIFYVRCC
Briefly: flow cytometry, tumor cells with endogenous MICA/B (column Binding EC50).

Test [3] deals with T3, human MICA/B endogenously expressed on HeLa cells (MICA allele *008) (human, UniProt Q29983 24-331).
T3 construct: it speaks of MICA/B, so MICB may be present as well
T3 chain: T2 chain
Described as above.

Test [4] addresses T4, human MICA/B endogenously expressed on RPMI-8226 cells (human, UniProt Q29983 24-383).
T4 construct: whole, on cells
T4 sequence (looked up): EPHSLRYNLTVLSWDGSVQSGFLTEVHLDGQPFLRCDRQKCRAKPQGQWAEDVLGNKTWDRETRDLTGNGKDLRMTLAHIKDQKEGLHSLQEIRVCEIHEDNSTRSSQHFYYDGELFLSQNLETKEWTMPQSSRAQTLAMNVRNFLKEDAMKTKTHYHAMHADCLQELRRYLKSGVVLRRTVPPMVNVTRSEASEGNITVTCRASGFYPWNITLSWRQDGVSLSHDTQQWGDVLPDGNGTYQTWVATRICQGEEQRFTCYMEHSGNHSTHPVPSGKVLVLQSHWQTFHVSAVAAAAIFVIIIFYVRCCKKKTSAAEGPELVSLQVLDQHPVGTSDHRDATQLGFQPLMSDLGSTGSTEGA
The test can be described thus: flow cytometry, tumor cells with endogenous MICA/B. The protocol: Serial dilutions of MICA.36-IgG1-NF-G236A mAb were incubated with CHO cells transduced with human MICA/B common alleles or human tumor cell lines that endogenously express MICA/B. Cells were then washed twice, and cell bound antibodies were detected using a secondary anti-human antibody conjugated with a fluorophore. Flow cytometric analyses were performed using a FACSCantoII or FACS Fortessa X-20 flow cytometer. The geometric mean fluorescence intensity of MICA.36-IgG1-NF-G236A mAb bound to cells was determined using FlowJo analysis software. Dose-response curves were generated and EC50s calculated using Prism software.
MICA.36-IgG1-NF-G236A bound to endogenously expressed MICA/B on a variety of human tumor cell lines (FIG. 8B).
(Flow cytometry measures light scatter and fluorescence of single cells or particles in a stream.)

Test [5] deals with T2, human MICA/B endogenously expressed on …. The test can be described thus: cell-based or functional assay.
Test [6] deals with T3, human MICA/B endogenously expressed on …. The test can be described thus: cell-based or functional assay.
The target of test [7] is T5, recombinant soluble human MICA*008 antigen (human, UniProt Q29983 24-307).
T5 construct: also called huIMICA-his allele *008; recombinant soluble MICA (allele 8)
T5 chain: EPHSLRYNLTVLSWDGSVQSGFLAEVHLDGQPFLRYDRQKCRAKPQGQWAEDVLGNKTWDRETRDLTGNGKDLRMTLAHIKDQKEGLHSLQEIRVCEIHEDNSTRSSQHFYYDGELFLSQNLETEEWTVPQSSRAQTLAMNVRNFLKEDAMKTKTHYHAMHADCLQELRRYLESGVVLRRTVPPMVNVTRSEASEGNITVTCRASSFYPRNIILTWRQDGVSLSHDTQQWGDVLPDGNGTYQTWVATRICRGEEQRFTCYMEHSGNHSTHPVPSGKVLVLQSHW
Briefly: SPR (Biacore T200, 37 C), antibody captured on anti-human Fc, range over both antigen concentration sets. The protocol: (§1) Anti-MICA/B antibodies were captured to α-human Fc surfaces. MICA allele antigens were injected at high and low nanomolar concentrations (500 nM and 50 nM, except indicated otherwise). The results for antibodies MICA.36 and MICA.38 (MICA.2 with a Ser inserted between residues 95 and 96 in the light chain) are shown in Table 2 below.
(In SPR one partner is held on a chip, and binding of the other changes the refractive index at the surface.)

The target in test [8] is T6, recombinant soluble human MICA*004 antigen (human, UniProt Q29983 24-307).
T6 construct: also called huIMICA-his allele *004
T6 chain: T5 chain with L122V, G175S, T181R, I213T, T215S, W216T, R251Q
The test is described as above. How it is done:
as §1

For test [9], the target named is T7, recombinant soluble human MICA*009 antigen (human, UniProt Q29983 24-307).
T7 construct: also called huIMICA-his allele *009
T7 chain: T5 chain with G175S, I213T, R251Q
The test is described as above. The protocol: as §1

Test [10] has as its target T5, recombinant soluble human MICA*008 …. The test can be described thus: SPR (Biacore T200, 37 C), antibody captured on anti-human Fc, antigen 100 and 10 nM. The protocol:
as §1

Test [11] concerns the target T6, recombinant soluble human MICA*004 …. The test is described as above. How it is done: as §1
For test [12], the target named is T7, recombinant soluble human MICA*009 …. The test is described as above. How it is done:
as §1

Test [13] deals with T5, recombinant soluble human MICA*008 …. The test can be described thus: SPR (Biacore T200, 37 C), antibody captured on anti-human Fc, antigen 500 and 50 nM. How it is done: as §1
Test [14] has as its target T6, recombinant soluble human MICA*004 …. The description is as above. The protocol: as §1
Test [15] deals with T8, recombinant soluble human MICA*002 antigen (human, UniProt Q29983 24-307).
T8 construct: also called huIMICA-his allele *002
T8 chain: T5 chain with W14G, Y36C, V129M, E173K, S206G, R210W, I213T, T215S, R251Q
The test is described as above. The protocol: as §1

The target in test [16] is T7, recombinant soluble human MICA*009 …. The test is described as above. The protocol: as §1

B1: MICA.36-IgG1-NF-G236A (antibody)
heavy: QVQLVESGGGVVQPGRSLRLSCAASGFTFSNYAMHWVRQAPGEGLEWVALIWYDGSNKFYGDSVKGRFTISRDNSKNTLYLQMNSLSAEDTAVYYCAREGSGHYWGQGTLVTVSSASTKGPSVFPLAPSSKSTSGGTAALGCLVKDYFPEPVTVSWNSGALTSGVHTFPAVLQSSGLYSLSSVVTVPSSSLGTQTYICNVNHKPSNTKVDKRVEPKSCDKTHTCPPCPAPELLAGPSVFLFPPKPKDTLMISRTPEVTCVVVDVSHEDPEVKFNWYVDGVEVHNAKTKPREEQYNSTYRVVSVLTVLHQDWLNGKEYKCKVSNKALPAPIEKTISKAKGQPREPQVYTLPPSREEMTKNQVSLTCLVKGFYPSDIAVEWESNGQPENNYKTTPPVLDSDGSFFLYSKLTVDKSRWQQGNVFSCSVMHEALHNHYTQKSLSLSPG
light: AIQLTQSPSSLSASVGDRVTITCRASQGISSALAWYQQKPGKVPKSLIYDASSLESGVPSRFSGSGSGTDFTLTISSLQPEDFATYYCQQFNSYPITFGQGTRLEIKRTVAAPSVFIFPPSDEQLKSGTASVVCLLNNFYPREAKVQWKVDNALQSGNSQESVTEQDSKDSTYSLSSTLTLSKADYEKHKVYACEVTHQGLSSPVTKSFNRGEC
modifications: non-fucosylated (expressed in FUT8-knock-out CHO cells)
notes: Human IgG1 with G236A (EU numbering); also called MICA.36 NF G236A; MICA.36-NF-G236A
Usually EC50 stands for the concentration that produces a half-maximal response. Higher therefore signals a need for much substance. As for B1, in test [1], the “OT-I CD8+ T cell proliferation (antigen cross-presentation) EC50” value came out at 1.6 nM and the “antibody dependent cellular phagocytosis (ADCP) EC50” value came out at 10.7 nM. The response in [2] was half-maximal at 1.37 nM (EC50). Moreover, in test [3], it took 1.76 nM to reach a half-maximal effect (EC50). The EC50 in [4] amounted to 3.9 nM. Also, in test [5], the “Fold increase in surface MICA” value amounted to 1.47 fold, the “MICA retention EC50” value came to 0.057 nM and the “Reduction in sMICA EC50” value stood at 0.14 nM. Further, in test [6], the “Fold increase in surface MICA” value was determined as 1.43 fold, the “MICA retention EC50” value was 0.032 nM and the “Reduction in sMICA EC50” value amounted to 0.1 nM.

B2: MICA.36 hIgG1 (antibody)
heavy: not shown
light: B1 light
notes: Recombinant form of hybridoma 19G6 with wild type human IgG1 (236G), fucosylated; also called MICA.36hIgGl; MICA.36 IgG1
For orientation: Kd means the free concentration of one partner at which half of the binding sites on the other are occupied at equilibrium, for simple one-to-one binding. Usually koff stands for the first-order rate constant of dissociation. The term kon denotes the second-order rate constant of association. B2: the Kd in test [7] was 4 to 5.1 nM; in test [8] it was 6.2 to 13.8 nM; in test [9] it was 8.6 to 11.9 nM; in [15] it was > 250 nM. Further, the koff was 0.000606 s⁻¹ in test [10]; 0.000637 s⁻¹ in test [11]; 0.000642 s⁻¹ in test [12]; 0.000565 s⁻¹ in [13]; 0.000591 s⁻¹ in test [14]; 0.0161 s⁻¹ in test [15]. Further, the off-rate constant (koff) in test [16] came to 0.000603 s⁻¹. Further, the kon in test [10] amounted to 120000 M⁻¹ s⁻¹; in [11] it was 46200 M⁻¹ s⁻¹; in test [12] it was 54100 M⁻¹ s⁻¹; in test [13], 140000 M⁻¹ s⁻¹; in test [14], 95200 M⁻¹ s⁻¹; in test [15], 28600 M⁻¹ s⁻¹. Further, the kon in [16] was 70100 M⁻¹ s⁻¹.
